Assay results published in article PMC8933513 (2022).

Experiments:
Assay in all cases: SPR
[1] = biological target: T1, pAPN ectodomain K374A mutant (pig, UniProt P15145 58-961, K374A)
T1 sequence: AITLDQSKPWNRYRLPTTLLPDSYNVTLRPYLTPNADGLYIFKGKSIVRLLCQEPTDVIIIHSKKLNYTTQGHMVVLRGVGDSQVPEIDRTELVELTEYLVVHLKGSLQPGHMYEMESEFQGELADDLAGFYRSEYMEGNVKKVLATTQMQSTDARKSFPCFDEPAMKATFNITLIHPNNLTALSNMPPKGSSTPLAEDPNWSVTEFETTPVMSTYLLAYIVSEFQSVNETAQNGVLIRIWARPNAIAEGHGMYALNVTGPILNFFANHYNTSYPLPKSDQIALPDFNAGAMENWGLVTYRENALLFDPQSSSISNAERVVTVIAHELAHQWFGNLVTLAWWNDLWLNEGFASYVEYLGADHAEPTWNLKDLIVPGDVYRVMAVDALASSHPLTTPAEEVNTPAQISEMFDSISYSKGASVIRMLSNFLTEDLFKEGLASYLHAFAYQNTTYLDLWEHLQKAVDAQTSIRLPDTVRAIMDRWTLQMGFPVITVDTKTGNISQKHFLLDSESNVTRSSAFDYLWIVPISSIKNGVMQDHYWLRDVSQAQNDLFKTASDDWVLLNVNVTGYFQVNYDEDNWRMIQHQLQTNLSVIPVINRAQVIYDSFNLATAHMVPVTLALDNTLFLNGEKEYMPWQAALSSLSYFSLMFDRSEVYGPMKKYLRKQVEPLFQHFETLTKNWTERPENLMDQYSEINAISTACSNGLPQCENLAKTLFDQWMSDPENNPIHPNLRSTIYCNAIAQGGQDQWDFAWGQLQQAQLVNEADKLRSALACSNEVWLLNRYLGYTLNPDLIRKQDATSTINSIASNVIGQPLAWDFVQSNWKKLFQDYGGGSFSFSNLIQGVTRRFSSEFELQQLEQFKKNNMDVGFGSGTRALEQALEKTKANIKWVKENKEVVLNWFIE

[2] = biological target: T2, pAPN ectodomain W424A mutant (pig, UniProt P15145 58-961, W424A)
T2 sequence: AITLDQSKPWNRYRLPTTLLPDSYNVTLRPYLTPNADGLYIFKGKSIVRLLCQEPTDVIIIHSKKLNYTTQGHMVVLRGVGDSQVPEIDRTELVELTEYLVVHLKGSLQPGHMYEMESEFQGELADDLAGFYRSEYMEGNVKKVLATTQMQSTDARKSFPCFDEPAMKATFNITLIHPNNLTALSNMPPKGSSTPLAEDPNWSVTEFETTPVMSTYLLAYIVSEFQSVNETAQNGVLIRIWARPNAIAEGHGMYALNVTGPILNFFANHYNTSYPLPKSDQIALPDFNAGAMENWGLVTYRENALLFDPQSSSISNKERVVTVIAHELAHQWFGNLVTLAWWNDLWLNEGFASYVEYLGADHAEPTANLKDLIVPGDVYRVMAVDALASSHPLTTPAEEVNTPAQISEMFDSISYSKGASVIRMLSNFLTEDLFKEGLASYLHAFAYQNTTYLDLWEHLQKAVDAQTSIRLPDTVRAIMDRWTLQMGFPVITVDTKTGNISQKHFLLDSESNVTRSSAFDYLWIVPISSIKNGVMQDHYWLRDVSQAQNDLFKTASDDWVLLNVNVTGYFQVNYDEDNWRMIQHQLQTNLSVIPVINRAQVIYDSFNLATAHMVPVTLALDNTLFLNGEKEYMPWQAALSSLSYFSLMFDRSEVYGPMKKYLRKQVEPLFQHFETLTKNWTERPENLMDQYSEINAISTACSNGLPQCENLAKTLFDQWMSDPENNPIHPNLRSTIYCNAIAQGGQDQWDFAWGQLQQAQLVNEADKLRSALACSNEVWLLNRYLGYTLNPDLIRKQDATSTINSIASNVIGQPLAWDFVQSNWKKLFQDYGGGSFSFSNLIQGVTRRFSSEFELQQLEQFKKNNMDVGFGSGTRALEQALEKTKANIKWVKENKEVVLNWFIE

[3] = biological target: T3, porcine aminopeptidase N (pAPN) ectodomain, residues 58-961, wild type (pig, UniProt P15145 58-961)
T3 chain: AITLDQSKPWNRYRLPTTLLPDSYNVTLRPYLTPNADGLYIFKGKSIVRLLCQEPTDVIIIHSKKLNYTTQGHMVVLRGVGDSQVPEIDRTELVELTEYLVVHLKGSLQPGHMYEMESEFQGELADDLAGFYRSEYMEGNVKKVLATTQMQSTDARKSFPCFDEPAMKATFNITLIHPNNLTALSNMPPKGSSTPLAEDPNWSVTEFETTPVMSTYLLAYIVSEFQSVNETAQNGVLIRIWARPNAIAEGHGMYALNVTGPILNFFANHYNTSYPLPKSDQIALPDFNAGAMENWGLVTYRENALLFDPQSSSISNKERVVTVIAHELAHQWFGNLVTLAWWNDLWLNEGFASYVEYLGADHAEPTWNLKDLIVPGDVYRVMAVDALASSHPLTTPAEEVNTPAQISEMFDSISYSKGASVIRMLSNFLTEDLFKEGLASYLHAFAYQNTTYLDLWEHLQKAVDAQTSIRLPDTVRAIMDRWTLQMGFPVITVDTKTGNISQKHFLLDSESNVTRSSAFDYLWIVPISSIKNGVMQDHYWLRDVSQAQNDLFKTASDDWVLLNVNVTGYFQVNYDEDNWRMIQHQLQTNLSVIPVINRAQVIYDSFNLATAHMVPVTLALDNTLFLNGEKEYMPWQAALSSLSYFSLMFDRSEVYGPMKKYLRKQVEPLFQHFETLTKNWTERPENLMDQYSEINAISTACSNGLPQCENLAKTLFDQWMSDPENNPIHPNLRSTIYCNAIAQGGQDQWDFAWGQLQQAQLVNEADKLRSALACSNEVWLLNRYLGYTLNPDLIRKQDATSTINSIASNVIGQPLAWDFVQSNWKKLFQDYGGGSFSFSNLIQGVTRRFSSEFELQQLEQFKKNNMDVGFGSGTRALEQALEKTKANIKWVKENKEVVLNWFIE

[4] = biological target: hAPN ectodomain Y316A mutant (human, UniProt P15144 62-963, Y316A)
[5] = biological target: hAPN ectodomain H789A mutant (human, UniProt P15144 62-963, H789A)

Sequence of hAPN ectodomain Y316A mutant (P15144 62-963 Y316A): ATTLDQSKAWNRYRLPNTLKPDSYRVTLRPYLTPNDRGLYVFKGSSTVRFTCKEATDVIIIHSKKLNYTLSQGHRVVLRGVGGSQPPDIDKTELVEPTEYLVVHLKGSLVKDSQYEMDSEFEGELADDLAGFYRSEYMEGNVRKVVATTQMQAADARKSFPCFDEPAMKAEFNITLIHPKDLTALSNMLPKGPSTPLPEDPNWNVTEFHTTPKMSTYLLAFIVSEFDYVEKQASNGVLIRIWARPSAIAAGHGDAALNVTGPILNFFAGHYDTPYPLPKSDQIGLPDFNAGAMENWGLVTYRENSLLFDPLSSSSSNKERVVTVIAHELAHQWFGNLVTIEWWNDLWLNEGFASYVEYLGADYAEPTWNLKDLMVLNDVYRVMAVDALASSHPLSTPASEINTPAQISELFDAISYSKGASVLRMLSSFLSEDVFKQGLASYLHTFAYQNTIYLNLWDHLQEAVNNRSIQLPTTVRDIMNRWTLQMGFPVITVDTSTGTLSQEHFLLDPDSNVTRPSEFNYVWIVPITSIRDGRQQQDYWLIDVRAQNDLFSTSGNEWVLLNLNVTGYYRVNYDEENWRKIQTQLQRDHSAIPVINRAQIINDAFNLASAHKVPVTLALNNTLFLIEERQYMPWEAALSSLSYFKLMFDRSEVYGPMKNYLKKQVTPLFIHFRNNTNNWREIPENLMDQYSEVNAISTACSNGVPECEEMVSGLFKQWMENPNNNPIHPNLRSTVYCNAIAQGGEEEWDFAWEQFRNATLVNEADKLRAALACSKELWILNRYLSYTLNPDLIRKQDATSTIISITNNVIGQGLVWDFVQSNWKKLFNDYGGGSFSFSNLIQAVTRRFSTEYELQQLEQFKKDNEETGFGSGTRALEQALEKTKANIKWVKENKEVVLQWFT

B1: PDCoV spike (S) protein receptor binding domain (RBD), residues 300-419, wild type (domain or fragment)
chain: PKLPELEVVQLNISAHMDFGEARLDSVTINGNTSYCVTKPYFRLETNFMCTGCTMNLRTDTCSFDLSAVNNGMSFSQFCLSTESGACEMKIIVTYVWNYLLRQRLYVTAVEGQTHTGTTS
B1 was tested, and the Kd [1] was over 1 mM, the Kd [2] was 116 µM and the Kd [3] was 44.2 µM. For the same binder, the Kd [4] was 37.1 µM and the Kd [5] was 6.25 µM.
